Biological target: T1, recombinant BCMA protein fused to an FC fragment (SEQ ID NO 151)
T1 construct: also called BCMA-Fc fusion protein
T1 chain: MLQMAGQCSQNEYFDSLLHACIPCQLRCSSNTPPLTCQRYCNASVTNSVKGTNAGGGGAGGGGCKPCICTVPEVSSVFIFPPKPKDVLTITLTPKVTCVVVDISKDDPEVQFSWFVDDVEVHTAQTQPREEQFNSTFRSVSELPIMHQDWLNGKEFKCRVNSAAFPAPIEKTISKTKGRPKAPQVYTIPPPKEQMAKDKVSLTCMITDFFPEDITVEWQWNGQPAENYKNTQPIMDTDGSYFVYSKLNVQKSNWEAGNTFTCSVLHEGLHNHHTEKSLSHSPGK
Test: flow cytometry of CAR T cells, BCMA-Fc and PE labeled anti-FC antibody
Procedure: The CDC assay consisted in incubating 0.2 10⁶ transfected cells either alone, or in the presence of Rituximab (RTX, ROCHE, 400 ng) and Babby Rabbit Complement (BRC, AbD Serotec, ref#C12CA, 100 μL of the solution diluted according to the manufacturer protocol) for 2 hours at 37° C. in a final volume of 400 μL of Xvivo 10% FBS. At the end of incubation, anti BCMA-CAR T cells were recovered and labeled with recombinant BCMA protein fused to an FC fragment (SEQ ID NO 151) and a PE labeled anti-FC secondary monoclonal antibody (Jackson ImmunoResearch, ref#115-115-164, diluted 1/200). Cells were then recovered in PFA 4% before being analyzed by flow cytometry. The flow cytometry gating strategy was to determine the viability of anti-BCMA CAR positive T cells (PE positive cells) among the singlet found in the total population of cells. This analysis was performed on cells incubated alone and in the presence of RTX and BRC. Results are expressed as the ratio named “Relative frequency of viable cells among BCMA CAR positive T cells (with respect to control experiment)” described below: […]

Binder | binding result
anti-BCMA CAR of SEQ ID NO 135 (other, Single-chain CAR on primary T cells) EVQLLESGGGLVQPGGSLRLSCAASGFTFSSYAMNWVRQAPGKGLEWVSAILSSGGSTYYADSVKGRFTISRDNSKNTLYLQMNSLRAEDTAVYYCARYWPMDIWGQGTLVTVSSGGGGGSCPYSNPSLCSGGGGGSEIVLTQSPGTLSLSPGERATLSCRGGQSVSSSYLAWYQQKPGQAPRLLMYDASIRATGIPDRFSGSGSGTDFTLTISRLEPEDFAVYYCQQYQSWPLTFGQGTKVEIKSDPGSGGGGSCPYSNPSLCSGGGGSAPTTTPAPRPPTPAPTIASQPLSLRPEACRPAAGGAVHTRGLDFACDIYIWAPLAGTCGVLLLSLVITLYCRRGRKKLLYIFKQPFMRPVQTTQEEDGCSCRFPEEEEGGCELRVKFSRSADAPAYQQGQNQLYNELNLGRREEYDVLDKRRGRDPEMGGKPRRKNPQEGLYNELQKDKMAEAYSEIGMKGERRRGKGHDGLYQGLSTATKDTYDALHMQALPPRE | binds
anti-BCMA CAR of SEQ ID NO 130 (other, Single-chain CAR on primary T cells) EVQLLESGGGLVQPGGSLRLSCAASGFTFSSYAMNWVRQAPGKGLEWVSAILSSGGSTYYADSVKGRFTISRDNSKNTLYLQMNSLRAEDTAVYYCARYWPMDIWGQGTLVTVSSGGSCPYSNPSLCSGGSEIVLTQSPGTLSLSPGERATLSCRGGQSVSSSYLAWYQQKPGQAPRLLMYDASIRATGIPDRFSGSGSGTDFTLTISRLEPEDFAVYYCQQYQSWPLTFGQGTKVEIKSDPTTTPAPRPPTPAPTIASQPLSLRPEACRPAAGGAVHTRGLDFACDIYIWAPLAGTCGVLLLSLVITLYCRRGRKKLLYIFKQPFMRPVQTTQEEDGCSCRFPEEEEGGCELRVKFSRSADAPAYQQGQNQLYNELNLGRREEYDVLDKRRGRDPEMGGKPRRKNPQEGLYNELQKDKMAEAYSEIGMKGERRRGKGHDGLYQGLSTATKDTYDALHMQALPPRE | binds
anti-BCMA CAR of SEQ ID NO 134 (other, Single-chain CAR on primary T cells) EVQLLESGGGLVQPGGSLRLSCAASGFTFSSYAMNWVRQAPGKGLEWVSAILSSGGSTYYADSVKGRFTISRDNSKNTLYLQMNSLRAEDTAVYYCARYWPMDIWGQGTLVTVSSGGSCPYSNPSLCSGGSEIVLTQSPGTLSLSPGERATLSCRGGQSVSSSYLAWYQQKPGQAPRLLMYDASIRATGIPDRFSGSGSGTDFTLTISRLEPEDFAVYYCQQYQSWPLTFGQGTKVEIKSDPGSGGGGSCPYSNPSLCSGGGGSAPTTTPAPRPPTPAPTIASQPLSLRPEACRPAAGGAVHTRGLDFACDIYIWAPLAGTCGVLLLSLVITLYCRRGRKKLLYIFKQPFMRPVQTTQEEDGCSCRFPEEEEGGCELRVKFSRSADAPAYQQGQNQLYNELNLGRREEYDVLDKRRGRDPEMGGKPRRKNPQEGLYNELQKDKMAEAYSEIGMKGERRRGKGHDGLYQGLSTATKDTYDALHMQALPPRE | binds
anti-BCMA CAR of SEQ ID NO 131 (other, Single-chain CAR on primary T cells) EVQLLESGGGLVQPGGSLRLSCAASGFTFSSYAMNWVRQAPGKGLEWVSAILSSGGSTYYADSVKGRFTISRDNSKNTLYLQMNSLRAEDTAVYYCARYWPMDIWGQGTLVTVSSGGGGGSCPYSNPSLCSGGGGGSEIVLTQSPGTLSLSPGERATLSCRGGQSVSSSYLAWYQQKPGQAPRLLMYDASIRATGIPDRFSGSGSGTDFTLTISRLEPEDFAVYYCQQYQSWPLTFGQGTKVEIKSDPTTTPAPRPPTPAPTIASQPLSLRPEACRPAAGGAVHTRGLDFACDIYIWAPLAGTCGVLLLSLVITLYCRRGRKKLLYIFKQPFMRPVQTTQEEDGCSCRFPEEEEGGCELRVKFSRSADAPAYQQGQNQLYNELNLGRREEYDVLDKRRGRDPEMGGKPRRKNPQEGLYNELQKDKMAEAYSEIGMKGERRRGKGHDGLYQGLSTATKDTYDALHMQALPPRE | binds
anti-BCMA CAR of SEQ ID NO 137 (other, Single-chain CAR on primary T cells) GGGGSCPYSNPSLCSGGGGSGGGGSEVQLLESGGGLVQPGGSLRLSCAASGFTFSSYAMNWVRQAPGKGLEWVSAILSSGGSTYYADSVKGRFTISRDNSKNTLYLQMNSLRAEDTAVYYCARYWPMDIWGQGTLVTVSSGGSCPYSNPSLCSGGSEIVLTQSPGTLSLSPGERATLSCRGGQSVSSSYLAWYQQKPGQAPRLLMYDASIRATGIPDRFSGSGSGTDFTLTISRLEPEDFAVYYCQQYQSWPLTFGQGTKVEIKSDPGSGGGGSCPYSNPSLCSGGGGSAPTTTPAPRPPTPAPTIASQPLSLRPEACRPAAGGAVHTRGLDFACDIYIWAPLAGTCGVLLLSLVITLYCRRGRKKLLYIFKQPFMRPVQTTQEEDGCSCRFPEEEEGGCELRVKFSRSADAPAYQQGQNQLYNELNLGRREEYDVLDKRRGRDPEMGGKPRRKNPQEGLYNELQKDKMAEAYSEIGMKGERRRGKGHDGLYQGLSTATKDTYDALHMQALPPRE | binds
anti-BCMA CAR of SEQ ID NO 132 (other, Single-chain CAR on primary T cells) GGGGSCPYSNPSLCSGGGGSGGGGSEVQLLESGGGLVQPGGSLRLSCAASGFTFSSYAMNWVRQAPGKGLEWVSAILSSGGSTYYADSVKGRFTISRDNSKNTLYLQMNSLRAEDTAVYYCARYWPMDIWGQGTLVTVSSGGSCPYSNPSLCSGGSEIVLTQSPGTLSLSPGERATLSCRGGQSVSSSYLAWYQQKPGQAPRLLMYDASIRATGIPDRFSGSGSGTDFTLTISRLEPEDFAVYYCQQYQSWPLTFGQGTKVEIKSDPTTTPAPRPPTPAPTIASQPLSLRPEACRPAAGGAVHTRGLDFACDIYIWAPLAGTCGVLLLSLVITLYCRRGRKKLLYIFKQPFMRPVQTTQEEDGCSCRFPEEEEGGCELRVKFSRSADAPAYQQGQNQLYNELNLGRREEYDVLDKRRGRDPEMGGKPRRKNPQEGLYNELQKDKMAEAYSEIGMKGERRRGKGHDGLYQGLSTATKDTYDALHMQALPPRE | binds
anti-BCMA CAR of SEQ ID NO 133 (other, Single-chain CAR on primary T cells) GGGGSCPYSNPSLCSGGGGSGGGGSEVQLLESGGGLVQPGGSLRLSCAASGFTFSSYAMNWVRQAPGKGLEWVSAILSSGGSTYYADSVKGRFTISRDNSKNTLYLQMNSLRAEDTAVYYCARYWPMDIWGQGTLVTVSSGGGGGSCPYSNPSLCSGGGGGSEIVLTQSPGTLSLSPGERATLSCRGGQSVSSSYLAWYQQKPGQAPRLLMYDASIRATGIPDRFSGSGSGTDFTLTISRLEPEDFAVYYCQQYQSWPLTFGQGTKVEIKSDPTTTPAPRPPTPAPTIASQPLSLRPEACRPAAGGAVHTRGLDFACDIYIWAPLAGTCGVLLLSLVITLYCRRGRKKLLYIFKQPFMRPVQTTQEEDGCSCRFPEEEEGGCELRVKFSRSADAPAYQQGQNQLYNELNLGRREEYDVLDKRRGRDPEMGGKPRRKNPQEGLYNELQKDKMAEAYSEIGMKGERRRGKGHDGLYQGLSTATKDTYDALHMQALPPRE | binds
anti-BCMA CAR of SEQ ID NO 138 (other, Single-chain CAR on primary T cells) GGGGSCPYSNPSLCSGGGGSGGGGSEVQLLESGGGLVQPGGSLRLSCAASGFTFSSYAMNWVRQAPGKGLEWVSAILSSGGSTYYADSVKGRFTISRDNSKNTLYLQMNSLRAEDTAVYYCARYWPMDIWGQGTLVTVSSGGGGGSCPYSNPSLCSGGGGGSEIVLTQSPGTLSLSPGERATLSCRGGQSVSSSYLAWYQQKPGQAPRLLMYDASIRATGIPDRFSGSGSGTDFTLTISRLEPEDFAVYYCQQYQSWPLTFGQGTKVEIKSDPGSGGGGSCPYSNPSLCSGGGGSAPTTTPAPRPPTPAPTIASQPLSLRPEACRPAAGGAVHTRGLDFACDIYIWAPLAGTCGVLLLSLVITLYCRRGRKKLLYIFKQPFMRPVQTTQEEDGCSCRFPEEEEGGCELRVKFSRSADAPAYQQGQNQLYNELNLGRREEYDVLDKRRGRDPEMGGKPRRKNPQEGLYNELQKDKMAEAYSEIGMKGERRRGKGHDGLYQGLSTATKDTYDALHMQALPPRE | binds
anti-BCMA CAR of SEQ ID NO 136 (other, Single-chain CAR on primary T cells) GGGGSCPYSNPSLCSGGGGSGGGGSEVQLLESGGGLVQPGGSLRLSCAASGFTFSSYAMNWVRQAPGKGLEWVSAILSSGGSTYYADSVKGRFTISRDNSKNTLYLQMNSLRAEDTAVYYCARYWPMDIWGQGTLVTVSSGGGGSGGGGSGGGGSEIVLTQSPGTLSLSPGERATLSCRGGQSVSSSYLAWYQQKPGQAPRLLMYDASIRATGIPDRFSGSGSGTDFTLTISRLEPEDFAVYYCQQYQSWPLTFGQGTKVEIKSDPGSGGGGSCPYSNPSLCSGGGGSAPTTTPAPRPPTPAPTIASQPLSLRPEACRPAAGGAVHTRGLDFACDIYIWAPLAGTCGVLLLSLVITLYCRRGRKKLLYIFKQPFMRPVQTTQEEDGCSCRFPEEEEGGCELRVKFSRSADAPAYQQGQNQLYNELNLGRREEYDVLDKRRGRDPEMGGKPRRKNPQEGLYNELQKDKMAEAYSEIGMKGERRRGKGHDGLYQGLSTATKDTYDALHMQALPPRE | binds

Reference: patent publication US20180002435A1 (CELLECTIS, published 2018)
